This data set deals with the molecule itself. The data set is described as follows: SEC; Superdex 200 10/300 GL, FPLC, 50 mM Tris-HCl pH 7.5, 100 mM NaCl, 0.5 mL/min, 4 °C; four fractions: F1 HMW complexes (>2,000 kDa), F2 and F3 LMW forms (between 158 and 440 kDa), F4 major dimeric form. (In gel filtration, larger molecules generally elute earlier.)

B1: recombinant Oryza sativa ascorbate peroxidase 2 (OsAPX2) protein (enzyme, UniProt Q9FE01 1-251, looked up)
chain: MGSKSYPTVSDEYLAAVGKAKRKLRGLIAEKNCAPLMLRLAWHSAGTFDVSSRTGGPFGTMKNPGEQSHAANAGLDIAVRLLDPIKDQLPILSYADFYQLAGVVAVEVTGGPEVPFHPGRQDKPEPPPEGRLPDATQGSDHLRQVFSAQMGLSDKDIVALSGGHTLGRCHKERSGFEGAWTSNPLIFDNSYFTELVSGEKEGLLQLPSDKALMADPAFRPLVEKYAADEDAFFADYAEAHLKLSELGFAEE
notes: Ascorbate peroxidase 2 (OsAPX2), cytosolic, Oryza sativa; the OsAPX2 gene cloned into pET28a; monomer of approximately 27 kDa on reducing SDS-PAGE; Haem-containing peroxidase; also called His-tagged OsAPX2; purified OsAPX2; source: E. coli BL21 (DE3), pET28a, purified (nickel-nitrilotriacetate agarose; SEC)
Turning to B1, the “stoichiometry N” value stood at 2.

In general, stoichiometry N refers to a count of units in the complex or per binding partner.

The record behind these values is paper PMC6003922, “Functional switching of ascorbate peroxidase 2 of rice (OsAPX2) between peroxidase and molecular chaperone” (Scientific Reports, 2018).
